Data: patent US20120088722A1
Ends that are not written are not given here.

Assays:
[1] = target: resting cartilage tissue extract; assay: fluorescent peptide (100 nM) binding to plate-dried cartilage CHAPS extract, reference scrambled peptide
[2] = target: hypertrophic cartilage tissue extract; assay: as above
[3] = target: extracellular matrix of whole cell primary chondrocyte cultures; assay: fluorescent peptide binding to extracellular matrix of hypertrophic chondrocyte monolayer cultures, reference scrambled peptide

Binder	fold binding over scrambled peptide control [1] [fold]	fold binding over scrambled peptide control [2] [fold]	fold binding compared to scrambled peptide [3] [fold]
ELGLPKEVKKISAAVHFED (also: fluorescent-labeled in binding assay, label and position not given here) [MMP13-19 peptide (amino acids 93-111 of SEQ ID NO: 1)]	5	9	8
LRGETMIFKD (also: fluorescent label (label and position not given here)) [MMP13-10 peptide (amino acids 17-26 of SEQ ID NO: 1)]	< 2	< 2	4
